{"source": "the DeepSol protein solubility set"}
{"assay": "soluble on expression in E. coli; label from the status in PepcDB or PDB records"}
{"sequence": "MSDYSAKPSGSLARIGDYDLSSDDSDQNDEDETLIASKTIQTGAVQVNDIAVAEASPAETDAKSSASPVSGPEPPTSAVVENRDLDEFKKESGSNDDKQEEINEDKDSNEETVFQQTESGSADVVDKTDVKQKDSDSSADDDHSHSKSGSVHSPQKPQGSTTPCSVQSPASPVGDEQAVKMEEVEEPIVASEEVPDKKPESVKESTDSESSGSEHGFEKMDTAEKVEDECNDDEVAASNGTEEPEPGDKAADTVNPWETPRQEPVDGVVQPRTEPPAGKPTRHTNCLDFVLFTVVKDALKHKHSWPFQLPVDAIKLEIPEYHNIVNTPMDLRTIEKRLRNLYYWCAEDAIKDLNTLFDNCKKFNDRNDDIYIMCENIEGVVQRGLEWMPSEEKPADLADHHRRGMFSASTPSGKTKGPKQRGRKSTRGRKKTSLPRGASTFKDESVDDNNDDESSKVDSINFDDDDDTATEKDAESRAESVQPEVVNEEPKPSTSQPPSKKRKAENGEPAVAVKIATPATPVAAHPQEETPRRKNPNTLIEWKHLVPRWQGKIPEWQKFCSKLLNEIHSVKNKGFAQVFYLPVDPIKLKIYDYLEVITNPMDLQTIKKKLDFKQYAEPEEFVHDINLMVDNCCKYNPKGSPAHSNALELRSFFEQRWKLFPRPGVDPIIADSYINQNLVVNTDLIEDERINSYLSAVKAEEKKCAEKLEQLRSMSEGLYTIAMQRREAKLAGNTAPALAQNQLSQLEGLGISIKSTPMMIPELISPALSVRSSSRAPVPKIIDDIGPSPIKARKISKPRASMASNVSVPYTPTGNPRGRKPKKSGRPKKNIYSPATVSERISQQPPFEVTPYVSIYGRKVVGTNDKIELSERMASIPQMYITPILRIIQIGHHNTGKTITSLRSLCEEEIDFNDVSDDLVIELLDYLEMIQKDKAKAEQVRQELEVKAKFYGFEAYDNKLGTIPKTRNMPPPLQHRMRSDSPSPSASRTGNQSSDSDSASDDSSDDEPSRSNSNVAGPRRALELSGNSSSASTPAGPSKAQPAVVRPSSKSVASKPAYTKRTLSESSSSSDSNGSSSDSSDSDSEPS", "soluble on expression in E. coli": "not soluble"}
{"sequence": "DVVSYVSHATQQRLQNLVEKISETAQQKNFSYKDDDRYEQASDVRAQLKFFEQLDQIEKQRKDEQEREILMRAAKSRSRQEDPEQLRLKQKAKEMQQQELAQMRQRDANLTALAAIGPRKKRKVDCPGPGSGAEGSGPGSVVPGSSGVGTPRQFTRQRITRVNLRDLIFCLENERETSHSLLLYKAFLK", "soluble on expression in E. coli": "soluble"}
{"sequence": "GSSKSWANHENKTVNKITVVGGGELGIACTLAISAKGIADRLVLLDLSEGTKGATMDLEIFNLPNVEISKDLSASAHSKVVIFTVNSLGSSQSYLDVVQSNVDMFRALVPALGHYSQHSVLLVASQPVEIMTYVTWKLSTFPANRVIGIGCNLDSQRLQYIITNVLKAQTSGKEVWVIGEQGEDKVLTWSGQEEVVSHTSQVQLSNRAMELLRVKGQRSWSVGLSVADMVDSIVNNKKKVHSVSALAKGYYDINSEVFLSLPCILGTNGVSEVIKTTLKEDTVTEKLQSSASSIHSLQQQLKL", "soluble on expression in E. coli": "soluble"}
{"sequence": "MNLSNHFLVAMPDMEDAFFSQSVVYICKHDEDGALGIAINKPSPITMDMIFSATGKNIPFRMQHDSVMMGGPVQVERGYVVHTPIGNWQSSIGVSDNIALTSSRDVIENISREGAVDKILISIGYSSWGKGQLERELADNAWLTVPADEHILFDIPYEHRYAAAFAKLGIDPLALFSGAGHALEHHHHHH", "soluble on expression in E. coli": "soluble"}
{"sequence": "MAITQKRPVYLQLVDRIKNEVATDVLSANDQLPSVRETALQEKINPNTVAKAYKELEAQKVIRTIPGKGTFITGNTASVKNSNQNRLLADLSQVIAELIKSGVKGERIKKIVNDILGGKNAEN", "soluble on expression in E. coli": "soluble"}
{"sequence": "MKHHHHHHGKAAGVTLGEVWKRQLNMLGKQEFERYKVSDITEVDRTAARRYLKEGRTDVGISVSRGAAKIRWLHERGYLRITGRVLDLGCGRGGWSYYAAAQKEVMSVKGYTLGIEGHEKPIHMQTLGWNIVKFKDKSNVFTMPTEPSDTLLCDIGESSSNPLVERDRTMKVLENFERWKHVNTENFCVKVLAPYHPDVIEKLERLQLRFGGGIVRVPFSRNSTHEMYYISGARNNITHMVNTTSRSLLRRMTRPSGKAIIEGDVFLPTGTRSVASEAGTIDHEALKLRVDQIKAEYSKT", "soluble on expression in E. coli": "soluble"}
{"sequence": "MVTMALDSVTIEVIRNSAIYISEEMGVVLRDTAFSPNIKDRLDHSCAVLAPDGSLVAQAEHIPVHLGSMSVGVVNLVKYIEDLGMDLGVGDVVVTNDPYISGTHLNDLMAIKPVYAGDFHIAYVANKAHHVDVGGLVPGSIGGGAKELREEGIVIEPVKVVEAGSVRWDIVRMLEANVRTPRYFRGDLMAQIASLNVGEARLRELAGRYGGSALVEAWESILGYTERYTREKIGEVAALASGVYRARDYMETSKGELLEIVATLTIDKGRLTVDYTGTSKQVDEPINAVYGVTVAATLFALKSTLDPEMPMNQGFFRIVEIKAPEGTLVNPLKPAPVGGGNVETSQRIADVVFRALAEALPERVPAASCGTMSNVMVGGRGWAFYETNACGSGARPCCDGVDGVHTNMTNTLNTPIEVIEREYPILFNAYELRPDSGGPGMYRGGLGVVRAFTALEDNVTITIFAERGLTRPWGLSGGRPGRSFEAVITRAAGEVERLMSKHTAKLNRGDTIAIYTPGGGGYGDPCKRDRSLIERDLREGRITMESAVKDYCYDS", "soluble on expression in E. coli": "not soluble"}
{"sequence": "MKKILFDVDGVFLSEERCFDVSALTVYELLMDKCYLGLHSHIDWETLTDNDIQDIRNRIFQKDKILNKLKSLGLNSNWDMLFIVFSIHLIDILKKLSHDEIEAFMYQDEPVELKLQNISTNLADCFNLNEQLPLQFLDNVKVGKNNIYAALEEFATTELHVSDATLFSLKGALWTLAQEVYQEWYLGSKLYEDVEKKIARTTFKTGYIYQEIILRPVDEVKVLLNDLKGAGFELGIATGRPYTETVVPFENLGLLPYFEADFIATASDVLEAENMYPQARPLGKPNPFSYIAALYGNNRDKYESYINKQDNIVNKDDVFIVGDSLADLLSAQKIGATFIGTLTGLKGKDAAGELEAHHADYVINHLGELRGVLDNLLEHHHHHH", "soluble on expression in E. coli": "soluble"}
{"sequence": "MSLLSYRHGFHAGNQADVFKHSALFSFLKVYTQKQKPFTAFDLNAGSASYNLLSEWSLKTGEAEEGIIRFLDLYKKEKLPLPIPEGFKAYLDFCLKNYDENSSYAGSPEIIRSFLQKESNLILCDLHSAEAEKLKELYKRVENVHVHKRDCYEAVRALTPPLPIRGFALFDPSYEVDSDYTAIAESVEKVCKKWPIGIFIIWYPILNHKTEECRNLKDRISKAMNNKVLNIEVKHFSNKIDSENEYGLQGSGLLITNPPWGLEEKLKEICEYVEKVSAGLDEGHHHHHH", "soluble on expression in E. coli": "soluble"}
{"sequence": "MSLRVEAQNISKTFGEVQALKDLSFVIEKGKALGLLGRNGAGKTTAIRILLGILPSDTGKVLVDNKKLSFDENAFGYLPEERGLYLKYTVKSQLMHFASLYGMKKKEALNSIEYWLEKFEISEYLNKKVETLSKGNKQKIQLIVAVMHDPEVIILDEPFSGLDPVNVELFKTVIRELLAKGKTLIFSSHRMADVEEFCDDIIMLKKGETMLQGNLDKIKEDYGIKGLVVEGEEKVQDFLKELGFEALEFKKGSYRVNLKDLEKGKELLRKITNTDLDIRGFYFERPSLNDIFIERLGEGHHHHHH", "soluble on expression in E. coli": "soluble"}
{"sequence": "MAHHHHHHMKNALFVNENMTILKIFYKDKLYMIKNKICGYQHDINENLVNNPHLLFLGRQEAWILILKCKEEAILQNCITATRYEEIRESEIERHDCVLGSLRK", "soluble on expression in E. coli": "not soluble"}
{"sequence": "GPLGSMPGPAAGSRARVYAEVNSLRSREYWDYEAHVPSWGNQDDYQLVRKLGRGKYSEVFEAINITNNERVVVKILKPVKKKKIKREVKILENLRGGTNIIKLIDTVKDPVSKTPALVFEYINNTDFKQLYQILTDFDIRFYMYELLKALDYCHSKGIMHRDVKPHNVMIDHQQKKLRLIDWGLAEFYHPAQEYNVRVASRYFKGPELLVDYQMYDYSLDMWSLGCMLASMIFRREPFFHGQDNYDQLVRIAKVLGTEELYGYLKKYHIDLDPHFNDILGQHSRKRWENFIHSENRHLVSPEALDLLDKLLRYDHQQRLTAKEAMEHPYFYPVVKEQSQ", "soluble on expression in E. coli": "soluble"}
{"sequence": "MGSDKIHHHHHHMALEDLVILLVEDDPVFRSIVAAFLTNRGATVIEADDGQQGLERFSQHDFDIVLADLSMPILGGLDMLKQMIKRKPDTLSIVISGNQVMADVVEALRVGASDYLVKPVNDLCLIENAIRQCVGGSSQQDVQLEDLDELSYQELEEHLNLLEQNAEAAKSVQQQLFPPSVIDYPKAKIDYSLFKHDEVSAYFIDSVNVGERYLIMYMAHFHPQDNRCAFASVLLKSFVNQKLKQFRNDNTETVIEPFNMLSYLNERMSKSGLDIYVDIVYAVVELTHYRASIAQAGKGLRCYIRNEEGLMPLAMPDALQLGILEWGQPSTQFRNLMPGESLCVASSNIEHRDMLLNDEFVGLSYSPEVAPGGYVQMSF", "soluble on expression in E. coli": "not soluble"}
{"sequence": "GSHMTRETERFPAREFQRDLLDWFARERRDLPWRKDRDPYKVWVSEVMLQQTRVETVIPYFEQFIDRFPTLEALADADEDEVLKAWEGLGYYSRVRNLHAAVKEVKTRYGGKVPDDPDEFSRLKGVGPYTVGAVLSLAYGVPEPAVDGNVMRVLSRLFLVTDDIAKPSTRKRFEQIVREIMAYENPGAFNEALIELGALVCTPRRPSCLLCPVQAYCQAFAEGVAEELPVKMKKTAVKQVPLAVAVLADDEGRVLIRKRDSTGLLANLWEFPSCETDGADGKEKLEQMVGEQYGLQVELTEPIVSFEHAFSHLVWQLTVFPGRLVHGGPVEEPYRLAPEDELKAYAFPVSHQRVWREYKEWASGVRPPP", "soluble on expression in E. coli": "soluble"}
{"sequence": "MGSDKIHHHHHHEHKDLCYDHPHFATVRVVFDWTKISNHDKPEGMRVVFYPTDDESNTWIFDFPGGEDGEVELPENDYRVICFNYDTDGMVWKENGSYTLFTADTRDVRSPDNQTMAVTPPWLCGDHIDRVILKDIPEGSTKIIRLTPVNMVCHYTYEVNGIRGLDRVADLRAALSGMSGSLNMSGDSLPADLSESLLFDGMVSRNQIIGGFYTFGHSALEGEPNVFRLYLKNRSGSMSVLEQDVSDQVHDVPVAGHIGDVHLVLNFDYEVPSEPGSGGPGFDVDVDDWDDVNVDIVL", "soluble on expression in E. coli": "not soluble"}
{"sequence": "MLDYIPWIGNGYRYGNGYKGVAGAGHSATNGSPAGNTSSTTQSNDVAPTFSNVGVGLKANVQGTLGDSQTTTVGGHQWPTLDPANLQLWTGAEWRNDSKTQNNTTTNENHTKFASATGSGQQQGSTTTTSAGNPDSLKQDKADKSGNSISVQEATSGDNLTNYTNLPPNLTPTSDWPNALSFTNKNNAQRAQLFLRGLLGSIPVLVNNLEHHHHHH", "soluble on expression in E. coli": "not soluble"}
{"sequence": "AIACTGCVQKQYPDRGNTCLENGSYLMNFVGCANCHQRDFVLISDRTMVNEDEEEIVTYLHMCKNCEHVIARHEYTFTVVDDYQEYTMLCMLCGKAEDSISVLPDDPRQTAPLF", "soluble on expression in E. coli": "soluble"}
{"sequence": "MEKIAILVDVQNVYYTCREQYGRHFDYNQFWSQVTQNRTVVKANAYAIASKDPQQRQFHHILRGIGFEVMLKPFIQRSDGSAKGDWDVGIALDGYELAQEVDTVVLVSGDGDFEPLVTRIAQRFQVKVEVYGVPKLTAQHLIDVASQFHPIEHRLLL", "soluble on expression in E. coli": "not soluble"}
{"sequence": "MTKSYDVWWQKGQESDDDMARDHQEAWERTIEMLDTSDIKGKTILDVGCNQGGFLRKLYDTTPFKEGVGIDLARLSLEKAETLKGERPLTYYLTDKPQETNRTFDTAVSTSVLYLIEDIPQHAQDLKEVLKPGGVYYASFADLTNNPSRQFMDDTINQYGATPSQNHSLKHIVDSFVDAGFEVAVMKEPVPDVIDLTHYSDFYLSPNDYLQTLYEESFLIKASVKEGIGKLEHHHHHH", "soluble on expression in E. coli": "soluble"}
{"sequence": "MAHHHHHHMGPRKSNAFASGKDDGAAAGKVRKVGGNGVGGSSATNSGSHKHGGAAAATMADIYTNEERAFLESQLALFTSGGGGSGGTDFARMTKEQWFAGLPTLVSATEKLLQAAADRYQQTCRERAAAAASVNGAQNAGSLPSADSSGVGKHGTTASSSHANSCTAEGIAPSGVAGSSDHRSTPAGGTPAQFAEENAYIIAQAQQLQWYPFTYQRWVELLLEPGKYHTACNDGGLRGDAIQTSLRRCILVTYPAVEGGDVI", "soluble on expression in E. coli": "soluble"}
